For orientation: IC50 means the concentration that gives 50% inhibition.

In experiment [1] the target is c-mpl (thrombopoietin receptor) on HU-03 cells, human platelets or human cord blood cells (human) (UniProt P40238). In words: Platelets: competition with 125I-TPO (100 pM) on human platelets.
For experiment [2] the target is unchanged. In words: Hu3 Binding: competition with 125I-TPO (100 pM) on HU-03 cells.
Another experiment concerns the target T1, mpl-Ig (UniProt P40238 26-491).
T1 construct: Used as conditioned medium of mpl-Ig-transfected 293 cells, captured on anti-human IgG Fc plates; also called Mpl (Mpl/TPO ELISA); not shown: Ig part, captured by rabbit anti-human IgG Fc
T1 sequence (looked up): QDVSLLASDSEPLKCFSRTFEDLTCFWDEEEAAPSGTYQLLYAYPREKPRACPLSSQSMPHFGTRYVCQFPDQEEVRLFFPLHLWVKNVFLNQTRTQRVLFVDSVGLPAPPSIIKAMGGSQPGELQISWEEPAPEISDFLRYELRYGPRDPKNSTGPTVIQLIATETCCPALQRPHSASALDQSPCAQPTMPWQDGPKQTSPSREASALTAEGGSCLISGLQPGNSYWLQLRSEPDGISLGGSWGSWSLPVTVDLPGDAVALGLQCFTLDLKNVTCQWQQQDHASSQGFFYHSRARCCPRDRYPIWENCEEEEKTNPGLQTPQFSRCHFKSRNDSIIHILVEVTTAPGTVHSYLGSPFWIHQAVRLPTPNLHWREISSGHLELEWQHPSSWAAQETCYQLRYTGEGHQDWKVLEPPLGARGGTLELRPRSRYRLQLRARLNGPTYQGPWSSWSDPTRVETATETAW
The experiment in a line: Mpl/TPO ELISA: inhibition of biotinylated TPO binding to captured mpl-Ig.

Experiment [3] addresses c-mpl (thrombopoietin receptor) on HU-03 cells, human platelets or human cord blood cells (human) (UniProt P40238). In words: cell-based or functional assay.
Experiment [4] has as its target mpl-Rse.gD chimeric receptor (human) (UniProt P40238). In words: cell-based or functional assay.
Experiment [5] concerns the target T2, c-mpl (thrombopoietin receptor) on HU-03 cells, human platelets or human cord blood cells (human, UniProt P40238 26-635).
T2 construct: whole, on cells; also called mpl receptor; TPO receptor
T2 sequence (looked up): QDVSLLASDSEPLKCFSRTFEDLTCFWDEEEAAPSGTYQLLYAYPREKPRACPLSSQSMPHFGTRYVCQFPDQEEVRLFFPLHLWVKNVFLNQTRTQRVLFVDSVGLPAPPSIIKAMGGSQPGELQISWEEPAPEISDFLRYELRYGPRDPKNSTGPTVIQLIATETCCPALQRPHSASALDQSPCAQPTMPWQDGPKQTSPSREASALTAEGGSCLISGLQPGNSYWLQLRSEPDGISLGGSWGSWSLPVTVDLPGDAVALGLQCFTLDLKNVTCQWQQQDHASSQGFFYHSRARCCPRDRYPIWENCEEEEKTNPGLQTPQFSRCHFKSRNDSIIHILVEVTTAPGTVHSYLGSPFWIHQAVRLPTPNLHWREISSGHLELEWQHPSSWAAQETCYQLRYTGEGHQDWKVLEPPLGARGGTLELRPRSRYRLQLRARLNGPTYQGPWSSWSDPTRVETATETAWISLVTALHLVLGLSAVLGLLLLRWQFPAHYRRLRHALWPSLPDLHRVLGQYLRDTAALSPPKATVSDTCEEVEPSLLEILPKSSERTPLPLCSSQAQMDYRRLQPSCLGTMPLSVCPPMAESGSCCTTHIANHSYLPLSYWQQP
In words: Hu3 Binding: competition with 125I-TPO (100 pM) on HU-03 cells.
Procedure: (§1) HU-03 cells were agitated during the incubation period to keep them in suspension. The reaction mixture was overlayed on 1 ml 20% sucrose-HBSSB and microcentrifuged at 13,500 rpm for five minutes. The supernatants were aspirated, tube bottoms containing the cell pellets were cut off, and cell- or platelet-associated radioactivity was measured with an Iso Data Model 120 gamma counter.

Experiment [6] addresses T2, c-mpl (thrombopoietin receptor) on …. In words: Platelets: competition with 125I-TPO (100 pM) on human platelets.
Procedure: as §1

B1: 12B5 IgG (antibody, from another filing)
scFv: QVQLVQSGGGLVRPGGSLSLSCAVSGITLRTYGMHWVRQAPGKGLEWVAGISFDGRSEYYADSVQGRFTISRDSSKNTLYLQMNSLRAEDTAVYYCARGAHYGFDIWGQGTMVTVSSGGGGTGGGGSGGGGSDIQMTQSPSTLSASIGDRVTITCRASEGIYHWLAWYQQKPGKAPKLLIYKASSLASGAPSRFSGSGSGTDFTLTISSLQPDDFATYYCQQYSNYPLTFGGGTKLEIK
For the molecule B1, the IC50 in experiment [1] was 300 nM; in experiment [2] it was 10 nM; with mpl-Ig it was 0.152 nM. In experiment [3], this molecule displayed a Hu3 Proliferation (ED50) of 0.03 nM. In experiment [4], this molecule displayed a KIRA (ED50) of 0.4 nM.

B2: 12E10 Fab (Fab, V domains shown)
VH: QVQLQQSGPGLVKPSETLSLTCTVSGDSISSYYWSWIRQPPGKGLEWIGYIYYSGSTNYNPSLKSRVTISVDTSKSQFSLKLSSVTAADTAVYYCARGRYFDVWGRGTMVTVSS
VL: SYVLTQPPSVSGSPGQSITISCTGTSSDVGGYNYVSWYQQHPGKAPKLMIYEGSKRPSGVSNRFSGSKSGNTASLTISGLQAEDEADYYCSSYTTRSTRVFGGGTKLTVL
notes: Monovalent Fab′ from E. coli: human IgG1 CH1 ending thr-ala-ala-pro, human kappa1 CL (pXCA730) or human lambda CL (pXCA970)
Take B2: the IC50 in experiment [5] is 500 nM; with mpl-Ig, 180 nM.

B3: 12E10 IgG (antibody, V domains shown)
VH: B2 VH
VL: B2 VL
notes: Full length antibody with human IgG1 CH1, CH2 and CH3 domains, expressed in 293 or CHO cells; also called full length human antibody derivative of 12E10
Consider B3, for which the IC50 came out at 50 nM in experiment [5], 0.45 nM with mpl-Ig and 500 nM in experiment [6].

B4: 12E10 Fab′2 (other)
VH: B2 VH
VL: B2 VL
notes: F(ab′)2 with leucine zipper, expressed in E. coli from pXCA740; copies: 2 + 2
B4: the values for the IC50 (in experiment [5]; in the experiment with mpl-Ig; in experiment [6]) were 10 nM, 640 nM and 500 nM, respectively.

For the origin of these results see US20060177441A1 (Genentech, published 2006).
